In US20190248900A1 (Y BIOLOGICS, published 2019):
Changes are numbered by the printed parent chain.

B1: PD1-41C9 (antibody, V domains shown)
VH: QMQLVESGGGVVQPGRSLRLSCAASGFTFSSYAMHWVRQAPGKGLEWVAVISYDGSNKYYADSVKGRFTISRDNSKNTLYLQMNRLRSEDTAVYYCTTTTFDSWGQGTLITVSS
VL: DIVMTQTPLSLPVTPGEAASISCRSSQSLLDSEDGNTYLDWYLQKPGQSPQLLIYTLSHRASGVPDRFSGSGSGTDFTLKISRVAAEDVGLYYCLQRMGFPYTFGQGTKLDIK
notes: scFv-phage in the screening ELISA; whole IgG in the other assays
B2: PD1-49A2 (antibody, V domains shown)
VH: B1 VH with M2V, S75P, R85S, S88A, Q106R, I110V
VL: B1 VL with T7S, A18P, L30F, E33D, A85E, L91I, L110V, D111E
notes: scFv-phage in the screening ELISA; whole IgG in the other assays; also called Parent 49A2
B3: PD1-45D6 (antibody, V domains shown)
VH: QVQLVESGGGVVQPGRSLRLSCAASGFTFSSYAMHWVRQVPGKGLEWVAVISYDGNDKYYADSVKGRFTISRDNSKNTLYLQMNSLRAEDTAVYYCVPTTFEYWGQGSQVTVSS
VL: DIVMTQTPLSLPVTPGEAASISCRSSQSLLDSDDGKTYLDWYLQKPGQSPQLLIYTLSYRASGVPDRFSGSGSGTEFNLRISRVEAEDVGIYYCMQRVEFPFTFGQGTKLDIK
notes: as for B1
B4: PD1-52E8 (antibody, V domains shown)
VH: QVQLVQSGGNLVQPGRSLRLSCAASGFTFDDYAMHWVRQAPGKGLEWVSGISWNSGTPGYADSVQGRFTISRDNAKNSLYLQMNSLRAEDTAVYYCARGHNYLDSSYYDYWGQGTLVTVSS
VL: SYELTQPLSLSVAPGQTARITCSGDALSKEYSYWYQQKPGQAPVLVMYKDSERPSGIPERFSGSSSGTTVTLTISGVQAEDEADYYCQSVDSSDTSVVFGGGTKLTVL
notes: as for B1

Target: T1, SPOCK1 (Homo sapiens (Human), UniProt Q08629 22-439)
T1 sequence: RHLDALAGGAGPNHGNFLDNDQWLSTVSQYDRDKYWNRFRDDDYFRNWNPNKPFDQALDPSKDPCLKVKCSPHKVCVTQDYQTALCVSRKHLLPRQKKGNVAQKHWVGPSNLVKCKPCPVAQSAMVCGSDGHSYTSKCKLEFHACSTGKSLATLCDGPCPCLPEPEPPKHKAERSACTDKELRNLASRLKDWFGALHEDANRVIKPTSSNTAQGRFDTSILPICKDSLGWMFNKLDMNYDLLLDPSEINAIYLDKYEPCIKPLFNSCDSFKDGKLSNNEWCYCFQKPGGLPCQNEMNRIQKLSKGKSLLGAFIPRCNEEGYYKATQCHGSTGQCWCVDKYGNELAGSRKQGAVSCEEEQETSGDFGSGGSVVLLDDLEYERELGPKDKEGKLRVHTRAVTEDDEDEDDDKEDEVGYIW
Assay: ELISA

Row | Binder | binding result
1 | B1 | no binding (tested: 1 ug/ml)
2 | B2 | no binding (tested: 1 ug/ml)
3 | B3 | no binding (tested: 1 ug/ml)

Target: T2, M13
T2 construct: also called PD1 mutant M13
Assay: scFv-phage ELISA

Row | Binder | OD490
4 | B4 | 3.9
5 | B1 | 3.6
6 | B2 | 3.9
7 | B3 | 4

Target: T3, M3
T3 construct: also called PD1 mutant M3
Assay: scFv-phage ELISA

Row | Binder | OD490
8 | B4 | 1.5
9 | B1 | 2.3
10 | B2 | 3.4
11 | B3 | 3.8

Target: T4, M9
T4 construct: also called PD1 mutant M9
Assay: scFv-phage ELISA

Row | Binder | OD490
12 | B4 | 2.4
13 | B1 | 3.3
14 | B2 | 3.7
15 | B3 | 3.8

Target: T5, M11
T5 construct: also called PD1 mutant M11
Assay: scFv-phage ELISA

Row | Binder | OD490
16 | B4 | 0.2
17 | B1 | 0.9
18 | B2 | 0.4
19 | B3 | 0.7

Target: T6, M8
T6 construct: also called PD1 mutant M8
Assay: scFv-phage ELISA

Row | Binder | OD490
20 | B4 | 0.6
21 | B1 | 2.5
22 | B2 | 3
23 | B3 | 3.8

Target: T7, M2-1
T7 construct: also called PD1 mutant M2-1
Assay: scFv-phage ELISA

Row | Binder | OD490
24 | B4 | 2.9
25 | B1 | 3.4
26 | B2 | 3.7
27 | B3 | 3.9

Target: T8, M4
T8 construct: also called PD1 mutant M4
Assay: scFv-phage ELISA

Row | Binder | OD490
28 | B4 | 3.7
29 | B1 | 3.2
30 | B2 | 3.9
31 | B3 | 3.9

Target: T9, ITGA6-Fc
T9 construct: Fc fusion
T9 sequence (P23229 whole entry, species assumed, looked up): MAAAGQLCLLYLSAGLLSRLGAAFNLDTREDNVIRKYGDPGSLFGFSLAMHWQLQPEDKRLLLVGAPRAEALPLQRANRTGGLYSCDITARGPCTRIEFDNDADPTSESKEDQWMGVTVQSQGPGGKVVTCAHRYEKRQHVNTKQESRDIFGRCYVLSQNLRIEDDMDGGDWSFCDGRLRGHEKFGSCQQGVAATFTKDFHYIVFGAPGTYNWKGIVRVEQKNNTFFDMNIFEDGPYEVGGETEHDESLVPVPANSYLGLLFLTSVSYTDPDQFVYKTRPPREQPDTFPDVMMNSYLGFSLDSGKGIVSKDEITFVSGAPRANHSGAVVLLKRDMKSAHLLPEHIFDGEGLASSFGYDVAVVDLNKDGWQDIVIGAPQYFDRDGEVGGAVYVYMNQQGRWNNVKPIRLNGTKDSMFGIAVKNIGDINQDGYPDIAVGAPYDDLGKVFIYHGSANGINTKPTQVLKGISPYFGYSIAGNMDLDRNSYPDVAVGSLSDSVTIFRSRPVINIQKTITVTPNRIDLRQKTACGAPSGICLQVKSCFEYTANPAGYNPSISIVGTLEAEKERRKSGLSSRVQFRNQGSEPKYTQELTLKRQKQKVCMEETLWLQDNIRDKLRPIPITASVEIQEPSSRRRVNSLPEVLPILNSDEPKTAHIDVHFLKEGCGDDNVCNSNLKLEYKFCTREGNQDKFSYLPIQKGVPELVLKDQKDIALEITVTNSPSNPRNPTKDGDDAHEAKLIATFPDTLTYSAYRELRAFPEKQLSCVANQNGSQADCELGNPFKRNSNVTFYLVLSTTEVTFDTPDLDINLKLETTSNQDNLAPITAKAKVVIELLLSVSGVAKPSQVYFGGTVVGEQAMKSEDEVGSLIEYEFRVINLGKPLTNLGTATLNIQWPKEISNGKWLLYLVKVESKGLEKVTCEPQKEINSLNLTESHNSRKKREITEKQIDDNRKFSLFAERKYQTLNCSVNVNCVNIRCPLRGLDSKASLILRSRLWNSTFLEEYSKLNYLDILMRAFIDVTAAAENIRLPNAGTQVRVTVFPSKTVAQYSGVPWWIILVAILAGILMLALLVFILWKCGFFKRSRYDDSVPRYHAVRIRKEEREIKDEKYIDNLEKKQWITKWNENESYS
Assay: scFv-phage ELISA

Row | Binder | OD490
32 | B4 | 0.1
33 | B1 | 0.5
34 | B2 | 0.2
35 | B3 | 0.5

Target: T10, M10
T10 construct: also called PD1 mutant M10
Assay: scFv-phage ELISA

Row | Binder | OD490
36 | B4 | 1
37 | B1 | 3.4
38 | B2 | 2.6
39 | B3 | 3.9

Target: T11, M1-1
T11 construct: also called PD1 mutant M1-1
Assay: scFv-phage ELISA

Row | Binder | OD490
40 | B4 | 1.5
41 | B1 | 3.1
42 | B2 | 3.4
43 | B3 | 3.8

Target: T12, M2
T12 construct: also called PD1 mutant M2
Assay: scFv-phage ELISA

Row | Binder | OD490
44 | B4 | 0.2
45 | B1 | 0.8
46 | B2 | 0.3
47 | B3 | 0.4

Target: T13, M6
T13 construct: also called PD1 mutant M6
Assay: scFv-phage ELISA

Row | Binder | OD490
48 | B4 | 3.4
49 | B1 | 3.6
50 | B2 | 3.9
51 | B3 | 3.9

Target: T14, M7
T14 construct: also called PD1 mutant M7
Assay: scFv-phage ELISA

Row | Binder | OD490
52 | B4 | 1
53 | B1 | 0.8
54 | B2 | 0.4
55 | B3 | 0.5

Target: T15, M7-2
T15 construct: also called PD1 mutant M7-2
Assay: scFv-phage ELISA

Row | Binder | OD490
56 | B4 | 3.9
57 | B1 | 3
58 | B2 | 2.2
59 | B3 | 4

Target: T16, M14
T16 construct: also called PD1 mutant M14
Assay: scFv-phage ELISA

Row | Binder | OD490
60 | B4 | 2.6
61 | B1 | 3.5
62 | B2 | 3.9
63 | B3 | 3.9

Target: T17, M7-1
T17 construct: also called PD1 mutant M7-1
Assay: scFv-phage ELISA

Row | Binder | OD490
64 | B4 | 1.1
65 | B1 | 1.2
66 | B2 | 0.5
67 | B3 | 1.3

Target: T18, M1-2
T18 construct: also called PD1 mutant M1-2
Assay: scFv-phage ELISA

Row | Binder | OD490
68 | B4 | 3.6
69 | B1 | 3.2
70 | B2 | 3.8
71 | B3 | 3.9

Target: T19, M12
T19 construct: also called PD1 mutant M12
Assay: scFv-phage ELISA

Row | Binder | OD490
72 | B4 | 3.2
73 | B1 | 3.1
74 | B2 | 3.9
75 | B3 | 3.9

Target: T20, M5-1
T20 construct: also called PD1 mutant M5-1
Assay: scFv-phage ELISA

Row | Binder | OD490
76 | B4 | 0.3
77 | B1 | 2.8
78 | B2 | 0.7
79 | B3 | 3.8

Target: T21, antigen PD1 (coated, construct not stated) (UniProt Q15116 25-170, limits assumed)
T21 construct: also called PD1 antigen; PDCD1
Assay: scFv-phage ELISA

T21 sequence (Q15116 25-170 limits assumed): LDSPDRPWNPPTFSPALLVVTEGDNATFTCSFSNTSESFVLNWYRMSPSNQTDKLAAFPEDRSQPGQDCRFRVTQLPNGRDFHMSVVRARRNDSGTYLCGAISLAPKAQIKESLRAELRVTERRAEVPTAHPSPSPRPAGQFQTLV

Row | Binder | OD490
80 | B4 | 0.4
81 | B1 | 3.2
82 | B2 | 3.6
83 | B3 | 3.8

Target: T22, M1
T22 construct: also called PD1 mutant M1
Assay: scFv-phage ELISA

Row | Binder | OD490
84 | B4 | 1.4
85 | B1 | 3.2
86 | B2 | 3
87 | B3 | 4

Target: T23, M5-2
T23 construct: also called PD1 mutant M5-2
Assay: scFv-phage ELISA

Row | Binder | OD490
88 | B4 | 3.5
89 | B1 | 3.6
90 | B2 | 3.8
91 | B3 | 3.9

Target: T24, M2-2
T24 construct: also called PD1 mutant M2-2
Assay: scFv-phage ELISA

Row | Binder | OD490
92 | B4 | 3.4
93 | B1 | 3.2
94 | B2 | 3.8
95 | B3 | 3.8

Target: T25, M5
T25 construct: also called PD1 mutant M5
Assay: scFv-phage ELISA

Row | Binder | OD490
96 | B4 | 0.5
97 | B1 | 2.3
98 | B2 | 1.2
99 | B3 | 3.6
